Reference: article PMC5440646, “T Cell Costimulation by CD6 Is Dependent on Bivalent Binding of a GADS/SLP-76 Complex” (Molecular and Cellular Biology, 2017)
pKd: −log10 of the molar value. Like-named read-outs stand apart in the source and are kept apart here.

How the values were obtained:
[1] = molecular target: long CD6 peptide phosphorylated at Y629 (human); assay: SPR; biotinylated long CD6 peptides immobilised at ~50 response units on streptavidin-coated CM5 chips, BIAcore 3000; SH2 domains injected at 10 μl/min at 37°C; equilibrium binding, 1:1 Langmuir
Chain of long CD6 peptide phosphorylated at Y629 (human) (P30203 622-668): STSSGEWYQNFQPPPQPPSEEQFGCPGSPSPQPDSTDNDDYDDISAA

[2] = molecular target: long CD6 peptide phosphorylated at Y629 and Y662 (human); assay: as above
Chain of long CD6 peptide phosphorylated at Y629 and Y662 (human) (P30203 622-668): as above

[3] = molecular target: SLP-76 (UniProt Q13094); assay: CD6 MAb immunoprecipitation, Western blot; details: reference: wild-type CD6-EGFP; sites Y662
[4] = molecular target: long CD6 peptide phosphorylated at Y662 (human); assay: SPR; biotinylated long CD6 peptides immobilised at ~50 response units on streptavidin-coated CM5 chips, BIAcore 3000; SH2 domains injected at 10 μl/min at 37°C; equilibrium binding, 1:1 Langmuir
Chain of long CD6 peptide phosphorylated at Y662 (human) (P30203 622-668): as above

[5] = molecular target: SLP-76 proline-rich motif (Homo sapiens) (UniProt Q13094); details: cited from earlier work
[6] = molecular target: GADS (UniProt O75791); assay: CD6 MAb immunoprecipitation, Western blot; details: reference: wild-type CD6-EGFP; sites Y629
[7] = molecular target: SLP-76 proline-rich motif (Homo sapiens) (UniProt Q13094); details: cited from earlier work; remark: listed apart in the source

Chain of GRB2 C-terminal SH3 (P62993 156-215): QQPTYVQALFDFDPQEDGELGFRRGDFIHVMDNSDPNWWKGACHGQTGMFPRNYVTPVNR
Chain of GADS C-terminal SH3 (O75791 271-330): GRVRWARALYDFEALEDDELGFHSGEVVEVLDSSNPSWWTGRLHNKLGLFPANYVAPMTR

With “GADS SH2 domain, His-tagged (from UniProt O75791 58-149) (domain or fragment)” the pKd [1] was 6.22 to 6.70 and the pKd [2] was 5.70 to 7.00.

For CD6 (from UniProt P30203) Y662F, the “binding against the reference” value [3] was “weaker”.

In the case of “SLP-76 SH2 domain, His-tagged (from UniProt Q13094 422-530) (domain or fragment)”, the pKd [4] was 5.70 to 6.52 and the pKd [2] was 5.70 to 6.52.

In the case of “GRB2 C-terminal SH3 (from UniProt P62993)”, the pKd [5] is given as 5.00.

For CD6 (from UniProt P30203) Y629F, the “binding against the reference” value [6] was “weaker”.

In the case of “GADS C-terminal SH3 (from UniProt O75791)”, the pKd [7] is listed as 6.70.
